Experiments:
Assay in all cases: holdup assay
Design in all cases: key: below the threshold = too weak to quantify, mostly under pKd 3.1 to 4
SNTG2, Q9NY99 = molecular target: T1, SNTG2, Q9NY99
T1 sequence (Q9NY99 68-166, limits assumed, looked up): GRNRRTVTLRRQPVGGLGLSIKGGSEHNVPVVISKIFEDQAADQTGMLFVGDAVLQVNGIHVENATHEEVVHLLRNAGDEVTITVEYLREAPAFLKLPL

NHERF3_3, Q5T2W1 = molecular target: T2, NHERF3_3, Q5T2W1
T2 sequence (Q5T2W1 238-333, limits assumed, looked up): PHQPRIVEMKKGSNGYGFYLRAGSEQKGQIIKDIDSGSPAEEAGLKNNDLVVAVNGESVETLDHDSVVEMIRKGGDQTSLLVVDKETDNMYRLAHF

MAST1, Q9Y2H9 = molecular target: MAST1, Q9Y2H9
MAGI2_2, Q86UL8 = molecular target: MAGI2_2, Q86UL8
HTRA1, Q92743 = molecular target: HTRA1, Q92743
DLG5_1, Q8TDM6 = molecular target: DLG5_1, Q8TDM6
PDLIM1, O00151 = molecular target: PDLIM1, O00151
RHPN1, Q8TCX5 = molecular target: T3, RHPN1, Q8TCX5
T3 sequence (Q8TCX5 508-602, limits assumed, looked up): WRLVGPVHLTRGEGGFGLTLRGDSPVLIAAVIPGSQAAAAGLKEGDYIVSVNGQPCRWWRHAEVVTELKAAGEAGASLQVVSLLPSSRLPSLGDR

FRMPD3, Q5JV73 = molecular target: FRMPD3, Q5JV73
TJP1_3, Q07157 = molecular target: TJP1_3, Q07157
MPP7, Q5T2T1 = molecular target: T4, MPP7, Q5T2T1
T4 sequence (Q5T2T1 134-230, limits assumed, looked up): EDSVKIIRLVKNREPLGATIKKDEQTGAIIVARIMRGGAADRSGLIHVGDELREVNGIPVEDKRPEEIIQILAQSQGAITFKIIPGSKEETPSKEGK

IL16_3, Q14005 = molecular target: IL16_3, Q14005
ARHGEF12, Q9NZN5-2 = molecular target: ARHGEF12, Q9NZN5-2
MAGI3_2, Q5TCQ9 = molecular target: MAGI3_2, Q5TCQ9
GRIP1_2, Q9Y3R0 = molecular target: T5, GRIP1_2, Q9Y3R0
T5 sequence (Q9Y3R0 145-248, limits assumed, looked up): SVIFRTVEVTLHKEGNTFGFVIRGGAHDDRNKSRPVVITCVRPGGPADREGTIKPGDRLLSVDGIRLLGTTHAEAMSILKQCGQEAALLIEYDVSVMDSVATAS

SNTA1, Q13424 = molecular target: T6, SNTA1, Q13424
T6 sequence (Q13424 82-180, limits assumed, looked up): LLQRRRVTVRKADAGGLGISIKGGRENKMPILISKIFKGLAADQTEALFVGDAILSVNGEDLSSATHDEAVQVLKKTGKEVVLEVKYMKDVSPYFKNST

APBA1_1, Q02410 = molecular target: T7, APBA1_1, Q02410
T7 sequence (Q02410 651-752, limits assumed, looked up): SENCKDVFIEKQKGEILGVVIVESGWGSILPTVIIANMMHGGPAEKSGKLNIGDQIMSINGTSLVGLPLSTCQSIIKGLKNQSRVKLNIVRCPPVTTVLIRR

PTPN3, P26045 = molecular target: PTPN3, P26045
Inadl_3, Q8NI35 = molecular target: Inadl_3, Q8NI35
RAPGEF6, Q8TEU7 = molecular target: T8, RAPGEF6, Q8TEU7
T8 sequence (Q8TEU7 525-625, limits assumed, looked up): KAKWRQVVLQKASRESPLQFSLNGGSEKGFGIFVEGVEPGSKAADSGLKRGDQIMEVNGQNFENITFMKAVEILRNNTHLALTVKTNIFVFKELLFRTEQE

RADIL, Q96JH8 = molecular target: T9, RADIL, Q96JH8
T9 sequence (Q96JH8 971-1071, limits assumed, looked up): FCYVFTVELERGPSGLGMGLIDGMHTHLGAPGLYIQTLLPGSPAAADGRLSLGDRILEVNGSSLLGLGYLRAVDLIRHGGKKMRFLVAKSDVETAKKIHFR

IL16_1, Q14005 = molecular target: IL16_1, Q14005
LNX1_2, Q8TBB1 = molecular target: LNX1_2, Q8TBB1
PDZRN3_1, Q9UPQ7 = molecular target: T10, PDZRN3_1, Q9UPQ7
T10 sequence (Q9UPQ7 244-349, limits assumed, looked up): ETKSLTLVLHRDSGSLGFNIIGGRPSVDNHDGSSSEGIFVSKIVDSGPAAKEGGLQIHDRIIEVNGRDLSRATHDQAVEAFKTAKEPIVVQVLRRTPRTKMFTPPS

GRID2IP_2, A4D2P6 = molecular target: GRID2IP_2, A4D2P6
ARHGEF11, O15085 = molecular target: T11, ARHGEF11, O15085
T11 sequence (O15085 42-136, limits assumed, looked up): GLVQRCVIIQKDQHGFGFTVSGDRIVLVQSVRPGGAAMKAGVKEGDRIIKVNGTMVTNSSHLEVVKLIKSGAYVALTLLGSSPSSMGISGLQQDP

Inadl_5, Q8NI35 = molecular target: Inadl_5, Q8NI35
[1] = plain residues with an end cap or a label only (N-terminal biotin on a linker: ttds)
[2] = plain residues with an end cap or a label only (N-terminal biotin on a linker: ado-ado)
[3] = plain residues with an end cap or a label only (N-terminal biotin on a linker: ahx)

Sequence of LNX1_2, Q8TBB1 (Q8TBB1 371-470): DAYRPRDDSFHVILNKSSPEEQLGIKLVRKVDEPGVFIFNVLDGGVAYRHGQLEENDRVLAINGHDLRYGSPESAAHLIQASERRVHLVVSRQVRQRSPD
Sequence of MAGI2_2, Q86UL8 (Q86UL8 410-522): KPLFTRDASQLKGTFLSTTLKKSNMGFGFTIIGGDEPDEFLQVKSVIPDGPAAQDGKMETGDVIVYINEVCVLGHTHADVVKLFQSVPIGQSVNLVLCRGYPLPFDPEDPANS
Sequence of FRMPD3, Q5JV73 (Q5JV73 12-100): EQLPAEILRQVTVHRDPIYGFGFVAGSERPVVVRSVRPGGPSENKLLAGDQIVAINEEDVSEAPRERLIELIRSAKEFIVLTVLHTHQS
Sequence of IL16_3, Q14005 (Q14005 1107-1207): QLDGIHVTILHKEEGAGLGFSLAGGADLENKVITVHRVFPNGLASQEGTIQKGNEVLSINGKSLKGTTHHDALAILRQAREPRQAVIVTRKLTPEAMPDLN
Sequence of Inadl_3, Q8NI35 (Q8NI35 359-469): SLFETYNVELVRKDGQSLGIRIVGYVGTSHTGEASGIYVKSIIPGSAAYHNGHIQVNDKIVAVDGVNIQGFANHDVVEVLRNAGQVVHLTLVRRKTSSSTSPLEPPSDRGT
Sequence of HTRA1, Q92743 (Q92743 360-477): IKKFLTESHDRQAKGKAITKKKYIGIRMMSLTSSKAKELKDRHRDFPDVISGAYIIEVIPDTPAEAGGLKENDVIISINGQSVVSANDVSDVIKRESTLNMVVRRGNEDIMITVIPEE
Sequence of DLG5_1, Q8TDM6 (Q8TDM6 617-713): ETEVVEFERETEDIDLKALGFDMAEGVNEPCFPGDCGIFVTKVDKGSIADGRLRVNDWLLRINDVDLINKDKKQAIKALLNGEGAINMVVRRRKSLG
Sequence of MAST1, Q9Y2H9 (Q9Y2H9 962-1065): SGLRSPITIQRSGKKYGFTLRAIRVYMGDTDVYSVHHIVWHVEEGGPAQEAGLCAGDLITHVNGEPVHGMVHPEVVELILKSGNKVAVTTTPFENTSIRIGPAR
Sequence of PDLIM1, O00151 (O00151 1-87): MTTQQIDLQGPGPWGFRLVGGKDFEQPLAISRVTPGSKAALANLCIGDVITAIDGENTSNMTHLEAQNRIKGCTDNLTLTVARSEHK
Sequence of TJP1_3, Q07157 (Q07157 416-512): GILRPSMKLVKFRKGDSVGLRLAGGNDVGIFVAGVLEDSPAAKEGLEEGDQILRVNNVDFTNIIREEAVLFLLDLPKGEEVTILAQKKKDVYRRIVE
Sequence of GRID2IP_2, A4D2P6 (A4D2P6 272-370): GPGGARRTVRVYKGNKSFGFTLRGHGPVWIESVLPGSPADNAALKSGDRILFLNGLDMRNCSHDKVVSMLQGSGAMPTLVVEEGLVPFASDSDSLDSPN
Sequence of ARHGEF12, Q9NZN5-2 (Q9NZN5 other isoform, or with tags, fused parts or gaps): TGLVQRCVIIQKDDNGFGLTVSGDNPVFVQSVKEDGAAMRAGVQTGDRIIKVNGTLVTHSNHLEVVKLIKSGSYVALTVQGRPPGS
Sequence of MAGI3_2, Q5TCQ9 (Q5TCQ9 398-503): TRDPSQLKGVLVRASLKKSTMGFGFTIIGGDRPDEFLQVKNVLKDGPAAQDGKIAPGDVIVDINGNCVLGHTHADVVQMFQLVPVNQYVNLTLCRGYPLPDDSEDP
Sequence of IL16_1, Q14005 (Q14005 210-306): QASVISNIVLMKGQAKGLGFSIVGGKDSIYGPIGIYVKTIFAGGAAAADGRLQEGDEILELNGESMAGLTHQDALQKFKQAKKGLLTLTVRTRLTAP
Sequence of Inadl_5, Q8NI35 (Q8NI35 673-780): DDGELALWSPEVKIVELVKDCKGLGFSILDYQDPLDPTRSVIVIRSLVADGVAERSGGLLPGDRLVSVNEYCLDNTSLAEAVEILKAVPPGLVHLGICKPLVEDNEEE
Sequence of PTPN3, P26045 (P26045 505-587): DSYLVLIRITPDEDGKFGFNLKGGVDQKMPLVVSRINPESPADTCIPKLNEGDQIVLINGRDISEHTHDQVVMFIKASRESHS

PKRPFVESNV [TANC2, Q9HCD6]
pKd (SNTG2, Q9NY99; [1]): 4.37
pKd (NHERF3_3, Q5T2W1; [1]): below the threshold
pKd (MAST1, Q9Y2H9; [1]): below the threshold
pKd (MAGI2_2, Q86UL8; [1]): below the threshold
pKd (HTRA1, Q92743; [1]): below the threshold
pKd (DLG5_1, Q8TDM6; [1]): below the threshold
pKd (PDLIM1, O00151; [1]): below the threshold
pKd (RHPN1, Q8TCX5; [1]): 4.09
pKd (FRMPD3, Q5JV73; [1]): below the threshold
pKd (TJP1_3, Q07157; [1]): below the threshold
pKd (MPP7, Q5T2T1; [1]): below the threshold
pKd (IL16_3, Q14005; [1]): below the threshold
pKd (ARHGEF12, Q9NZN5-2; [1]): below the threshold
pKd (MAGI3_2, Q5TCQ9; [1]): 4.55
pKd (GRIP1_2, Q9Y3R0; [1]): below the threshold
pKd (SNTA1, Q13424; [1]): 4.33
pKd (APBA1_1, Q02410; [1]): below the threshold
pKd (PTPN3, P26045; [1]): 4.34
pKd (Inadl_3, Q8NI35; [1]): below the threshold
pKd (RAPGEF6, Q8TEU7; [1]): below the threshold
pKd (RADIL, Q96JH8; [1]): below the threshold
pKd (IL16_1, Q14005; [1]): 4.66
pKd (LNX1_2, Q8TBB1; [1]): below the threshold
pKd (PDZRN3_1, Q9UPQ7; [1]): below the threshold
pKd (GRID2IP_2, A4D2P6; [1]): below the threshold
pKd (ARHGEF11, O15085; [1]): below the threshold
pKd (Inadl_5, Q8NI35; [1]): below the threshold

VNKVWDQSSV [CIT, O14578]
pKd (SNTG2, Q9NY99; [1]): below the threshold
pKd (NHERF3_3, Q5T2W1; [1]): below the threshold
pKd (MAST1, Q9Y2H9; [1]): 4.51
pKd (MAGI2_2, Q86UL8; [1]): below the threshold
pKd (HTRA1, Q92743; [1]): below the threshold
pKd (DLG5_1, Q8TDM6; [1]): below the threshold
pKd (PDLIM1, O00151; [1]): below the threshold
pKd (RHPN1, Q8TCX5; [1]): 3.82
pKd (FRMPD3, Q5JV73; [1]): below the threshold
pKd (TJP1_3, Q07157; [1]): below the threshold
pKd (MPP7, Q5T2T1; [1]): below the threshold
pKd (IL16_3, Q14005; [1]): below the threshold
pKd (ARHGEF12, Q9NZN5-2; [1]): below the threshold
pKd (MAGI3_2, Q5TCQ9; [1]): below the threshold
pKd (GRIP1_2, Q9Y3R0; [1]): below the threshold
pKd (SNTA1, Q13424; [1]): below the threshold
pKd (APBA1_1, Q02410; [1]): below the threshold
pKd (PTPN3, P26045; [1]): 3.78
pKd (Inadl_3, Q8NI35; [1]): below the threshold
pKd (RAPGEF6, Q8TEU7; [1]): below the threshold
pKd (RADIL, Q96JH8; [1]): below the threshold
pKd (IL16_1, Q14005; [1]): 3.68
pKd (LNX1_2, Q8TBB1; [1]): below the threshold
pKd (PDZRN3_1, Q9UPQ7; [1]): 3.53
pKd (GRID2IP_2, A4D2P6; [1]): 3.74
pKd (ARHGEF11, O15085; [1]): below the threshold
pKd (Inadl_5, Q8NI35; [1]): below the threshold

GFGEERESIL [KIDINS220, Q9ULH0]
pKd (SNTG2, Q9NY99; [2]): 4.31
pKd (NHERF3_3, Q5T2W1; [2]): below the threshold
pKd (MAST1, Q9Y2H9; [2]): 4.66
pKd (MAGI2_2, Q86UL8; [2]): below the threshold
pKd (HTRA1, Q92743; [2]): 4.6
pKd (DLG5_1, Q8TDM6; [2]): below the threshold
pKd (PDLIM1, O00151; [2]): below the threshold
pKd (RHPN1, Q8TCX5; [2]): 4.61
pKd (FRMPD3, Q5JV73; [2]): below the threshold
pKd (TJP1_3, Q07157; [2]): below the threshold
pKd (MPP7, Q5T2T1; [2]): below the threshold
pKd (IL16_3, Q14005; [2]): below the threshold
pKd (ARHGEF12, Q9NZN5-2; [2]): 4.13
pKd (MAGI3_2, Q5TCQ9; [2]): below the threshold
pKd (GRIP1_2, Q9Y3R0; [2]): below the threshold
pKd (SNTA1, Q13424; [2]): 5.26
pKd (APBA1_1, Q02410; [2]): below the threshold
pKd (PTPN3, P26045; [2]): 5.22
pKd (Inadl_3, Q8NI35; [2]): 3.65
pKd (RAPGEF6, Q8TEU7; [2]): below the threshold
pKd (RADIL, Q96JH8; [2]): 3.61
pKd (IL16_1, Q14005; [2]): 4.48
pKd (LNX1_2, Q8TBB1; [2]): below the threshold
pKd (PDZRN3_1, Q9UPQ7; [2]): 4.72
pKd (GRID2IP_2, A4D2P6; [2]): 3.86
pKd (ARHGEF11, O15085; [2]): 3.8
pKd (Inadl_5, Q8NI35; [2]): below the threshold

EKLSSIESDV [GRIN2B, Q13224]
pKd (SNTG2, Q9NY99; [3]): 4.04
pKd (NHERF3_3, Q5T2W1; [3]): below the threshold
pKd (MAST1, Q9Y2H9; [3]): 4.04
pKd (MAGI2_2, Q86UL8; [3]): below the threshold
pKd (HTRA1, Q92743; [3]): below the threshold
pKd (DLG5_1, Q8TDM6; [3]): below the threshold
pKd (PDLIM1, O00151; [3]): 3.71
pKd (RHPN1, Q8TCX5; [3]): 4.73
pKd (FRMPD3, Q5JV73; [3]): below the threshold
pKd (TJP1_3, Q07157; [3]): below the threshold
pKd (MPP7, Q5T2T1; [3]): below the threshold
pKd (IL16_3, Q14005; [3]): 3.57
pKd (ARHGEF12, Q9NZN5-2; [3]): 3.68
pKd (MAGI3_2, Q5TCQ9; [3]): 3.54
pKd (GRIP1_2, Q9Y3R0; [3]): below the threshold
pKd (SNTA1, Q13424; [3]): 4.39
pKd (APBA1_1, Q02410; [3]): below the threshold
pKd (PTPN3, P26045; [3]): 4.35
pKd (Inadl_3, Q8NI35; [3]): 3.91
pKd (RAPGEF6, Q8TEU7; [3]): below the threshold
pKd (RADIL, Q96JH8; [3]): below the threshold
pKd (IL16_1, Q14005; [3]): 4.02
pKd (LNX1_2, Q8TBB1; [3]): below the threshold
pKd (PDZRN3_1, Q9UPQ7; [3]): 3.7
pKd (GRID2IP_2, A4D2P6; [3]): below the threshold
pKd (ARHGEF11, O15085; [3]): 3.56
pKd (Inadl_5, Q8NI35; [3]): below the threshold

SEKHFRETEV [HTLV1-TAX1, P03409]
pKd (SNTG2, Q9NY99; [1]): 4.12
pKd (NHERF3_3, Q5T2W1; [1]): below the threshold
pKd (MAST1, Q9Y2H9; [1]): below the threshold
pKd (MAGI2_2, Q86UL8; [1]): 4.57
pKd (HTRA1, Q92743; [1]): 3.97
pKd (DLG5_1, Q8TDM6; [1]): below the threshold
pKd (PDLIM1, O00151; [1]): 3.69
pKd (RHPN1, Q8TCX5; [1]): 4.08
pKd (FRMPD3, Q5JV73; [1]): below the threshold
pKd (TJP1_3, Q07157; [1]): below the threshold
pKd (MPP7, Q5T2T1; [1]): below the threshold
pKd (IL16_3, Q14005; [1]): below the threshold
pKd (ARHGEF12, Q9NZN5-2; [1]): 3.81
pKd (MAGI3_2, Q5TCQ9; [1]): 4.99
pKd (GRIP1_2, Q9Y3R0; [1]): below the threshold
pKd (SNTA1, Q13424; [1]): 5.9
pKd (APBA1_1, Q02410; [1]): below the threshold
pKd (PTPN3, P26045; [1]): 5.26
pKd (Inadl_3, Q8NI35; [1]): 3.69
pKd (RAPGEF6, Q8TEU7; [1]): below the threshold
pKd (RADIL, Q96JH8; [1]): below the threshold
pKd (IL16_1, Q14005; [1]): 4.44
pKd (LNX1_2, Q8TBB1; [1]): 3.71
pKd (PDZRN3_1, Q9UPQ7; [1]): 5.1
pKd (GRID2IP_2, A4D2P6; [1]): 3.84
pKd (ARHGEF11, O15085; [1]): 4.22
pKd (Inadl_5, Q8NI35; [1]): below the threshold
